Several values for one entry are separate records, joined by “and”; a condition that tells them apart may be missing. Equal entries are not always repeated.
Molecular target: the molecule itself
Assay: native gel or EMSA; native PAGE, ATP form, 0.1 mM CaCl2 and 0.5 mM ATP in the running buffer, 277 K; samples 6.7 µM, immediately and 48 h after purification (stored on ice)

B1: Plasmodium falciparum actin I (natural protein)
chain: not shown
notes: actin I of Plasmodium falciparum, PlasmoDB PF3D7_1246200; also called PfActI; Plasmodium actin I; source: Sf21 cells at 300 K, purified (size exclusion chromatography), alone or as a complex with G1
stoichiometry N: 4 and 12
